Experimental data reported in article PMC4971505 (2016).

Experiments:
[1] = target: T1, M1 muscarinic acetylcholine receptor (Homo sapiens, UniProt P11229); assay: 3H-NMS radioligand pseudocompetition binding (allosteric model)
T1 chain: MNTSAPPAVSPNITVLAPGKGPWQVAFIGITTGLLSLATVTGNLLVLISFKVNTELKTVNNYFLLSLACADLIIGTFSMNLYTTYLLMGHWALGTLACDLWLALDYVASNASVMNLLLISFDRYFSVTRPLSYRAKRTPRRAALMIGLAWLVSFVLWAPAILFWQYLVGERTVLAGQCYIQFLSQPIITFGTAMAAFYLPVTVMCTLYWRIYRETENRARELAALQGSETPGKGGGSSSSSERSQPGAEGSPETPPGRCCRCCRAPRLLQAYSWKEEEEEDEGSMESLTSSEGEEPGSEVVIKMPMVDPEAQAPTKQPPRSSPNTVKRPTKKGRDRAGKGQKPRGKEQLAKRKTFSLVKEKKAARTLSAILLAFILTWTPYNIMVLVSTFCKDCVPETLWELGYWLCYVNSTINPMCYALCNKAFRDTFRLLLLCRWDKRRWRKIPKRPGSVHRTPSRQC

[2] = target: M3 muscarinic acetylcholine receptor (Homo sapiens, UniProt P20309); assay: as above
M3 muscarinic acetylcholine receptor, sequence (P20309 whole entry): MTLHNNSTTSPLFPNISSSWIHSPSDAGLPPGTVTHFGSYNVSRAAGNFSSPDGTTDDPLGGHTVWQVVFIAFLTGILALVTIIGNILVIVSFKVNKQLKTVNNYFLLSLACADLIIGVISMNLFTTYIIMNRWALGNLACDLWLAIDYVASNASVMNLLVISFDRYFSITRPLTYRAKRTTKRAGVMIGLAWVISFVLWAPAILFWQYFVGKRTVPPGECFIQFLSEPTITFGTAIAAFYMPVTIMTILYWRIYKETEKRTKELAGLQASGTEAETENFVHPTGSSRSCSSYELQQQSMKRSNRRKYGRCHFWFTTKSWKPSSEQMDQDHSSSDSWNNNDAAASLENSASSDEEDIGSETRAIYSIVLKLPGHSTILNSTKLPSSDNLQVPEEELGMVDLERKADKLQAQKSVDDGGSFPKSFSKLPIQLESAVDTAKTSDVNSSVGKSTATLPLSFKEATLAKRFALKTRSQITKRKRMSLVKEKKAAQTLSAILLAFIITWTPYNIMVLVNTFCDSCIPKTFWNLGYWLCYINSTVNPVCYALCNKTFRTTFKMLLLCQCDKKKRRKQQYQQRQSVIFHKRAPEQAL

B1: SLURP-2 (protein)
chain: IWCHQCTGFGGCSHGSRCLRDSTHCVTTATRVLSNTEDLPLVTKMCHIGCPDIPSLGLGPYVSIACCQTSLCNHD
With B1 as the binder, how does the Kd [1] read?
Its Kd is 231 nM.

What about the Kd [2] of the same binder?
The Kd was 144 nM.
